Kapp of the PTS reaction, pH 6.0, Kapp of the PTS reaction, pH 6.5 and Kapp of the PTS reaction, pH 7.0 data for one molecule are collected here from US20250353884A1.

This test concerns the target T1, Chim^C::mCH.
T1 sequence: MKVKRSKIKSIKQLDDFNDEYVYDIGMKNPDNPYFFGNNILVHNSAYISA
In words: cell-based or functional assay.

B1: mTQ::Chim^N (protein, not shown: large carriers)
chain: SETGDTIHKTNWGELTVEELFNRGTRYWSEDNSKEYSANDELKVLTFDPVKDEAYYGNINYIYRHKVSKEQWEIEDEAGNTIRVTGDHSIMIERDGQLMDVKPRDMLDTDVLIVVDHN
With B1, the Kapp of the PTS reaction, pH 6.0 is 0.0107 s⁻¹; the Kapp of the PTS reaction, pH 6.5 came to 0.00807 s⁻¹; the Kapp of the PTS reaction, pH 7.0 stood at 0.00724 s⁻¹.
